# Assay results published in patent publication US20120040896.
# Assays:
# [1] = test system: GST-BRCA1 fusion protein T509 (nucleotides 1323-1886)
# [2] = test system: GST-BRCA1 fusion protein A509+S694 (T509A mutant, nucleotides 1323-2538)
# [3] = test system: GST-BRCA1 fusion protein E509+S694 (phospho-mimic T509E mutant, nucleotides 1323-2538)
# [4] = test system: GST-BRCA1 fusion protein S694/T696 (nucleotides 1926-2538)
# [5] = test system: GST-BRCA1 fusion protein wild-type T509+S694 (nucleotides 1323-2538)
# [6] = test system: purified full length BRCA1 protein (ProteinOne)
# [7] = test system: GST-BRCA1 fusion protein with a T509A mutation (A509, nucleotides 1323-1886)
# [8] = test system: GST-BRCA1 fusion protein T1246 (nucleotides 3714-4310)
# Sequence of GST-BRCA1 fusion protein T1246 (nucleotides 3714-4310) (chain, as listed by the source): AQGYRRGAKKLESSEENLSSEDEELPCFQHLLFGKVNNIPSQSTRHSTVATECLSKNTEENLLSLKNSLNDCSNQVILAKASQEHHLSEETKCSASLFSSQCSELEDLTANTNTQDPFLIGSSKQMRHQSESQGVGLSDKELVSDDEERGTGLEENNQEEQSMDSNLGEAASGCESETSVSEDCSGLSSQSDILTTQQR
# Sequence of GST-BRCA1 fusion protein wild-type T509+S694 (nucleotides 1323-2538) (chain, as listed by the source): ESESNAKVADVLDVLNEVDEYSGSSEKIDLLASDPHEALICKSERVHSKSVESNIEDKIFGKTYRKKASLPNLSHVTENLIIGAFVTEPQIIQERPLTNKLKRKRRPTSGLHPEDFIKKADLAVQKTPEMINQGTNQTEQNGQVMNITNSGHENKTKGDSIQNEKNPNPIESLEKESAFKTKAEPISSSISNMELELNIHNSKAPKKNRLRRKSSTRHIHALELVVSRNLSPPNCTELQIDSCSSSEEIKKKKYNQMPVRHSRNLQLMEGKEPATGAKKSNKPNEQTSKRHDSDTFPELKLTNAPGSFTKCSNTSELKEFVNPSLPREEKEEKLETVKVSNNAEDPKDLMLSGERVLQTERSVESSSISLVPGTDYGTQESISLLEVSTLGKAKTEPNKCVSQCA
# Sequence of GST-BRCA1 fusion protein T509 (nucleotides 1323-1886) (chain, as listed by the source): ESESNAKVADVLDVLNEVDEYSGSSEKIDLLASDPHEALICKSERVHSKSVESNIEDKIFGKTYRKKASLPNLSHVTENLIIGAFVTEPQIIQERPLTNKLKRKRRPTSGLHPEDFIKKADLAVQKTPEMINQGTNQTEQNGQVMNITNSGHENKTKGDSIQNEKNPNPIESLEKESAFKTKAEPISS
# Sequence of GST-BRCA1 fusion protein S694/T696 (nucleotides 1926-2538) (chain, as listed by the source): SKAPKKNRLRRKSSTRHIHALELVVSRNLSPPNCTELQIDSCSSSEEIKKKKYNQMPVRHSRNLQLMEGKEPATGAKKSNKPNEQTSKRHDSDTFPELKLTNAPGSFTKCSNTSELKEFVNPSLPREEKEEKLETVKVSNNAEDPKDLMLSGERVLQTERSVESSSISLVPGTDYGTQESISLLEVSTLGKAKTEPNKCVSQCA
substance,measurement,setting,value
purified active Akt1,in vitro Akt kinase assay (phosphorylation),[1],both the T509 and S694/T696 constructs were strongly phosphorylated
same,in vitro Akt kinase assay (phosphorylation signal),[2],"equally phosphorylated by Akt, with the intensity of these signals approximately equal to one half of the signal obtained with the wild-type T509+S694 construct"
same,in vitro Akt kinase assay (phosphorylation signal),[3],"equally phosphorylated by Akt, with the intensity of these signals approximately equal to one half of the signal obtained with the wild-type T509+S694 construct"
same,in vitro Akt kinase assay (phosphorylation),[4],both the T509 and S694/T696 constructs were strongly phosphorylated
same,in vitro Akt kinase assay (phosphorylation signal),[5],the signal obtained with the wild-type T509+S694 construct
same,in vitro kinase reaction (phosphorylation),[6],full length BRCA1 is phosphorylated by Akt in vitro
same,in vitro Akt kinase assay (phosphorylation),[7],A fusion protein with a T509A mutation was not phosphorylated
same,in vitro Akt kinase assay (phosphorylation),[8],T1246 did not appear to be phosphorylated
